PMC3199388
Where two headings read alike, the source gives them in different places.

Key:
Assay in all cases: ITC
[1] = biological target: T1, Dcr1 dsRBD R1322A (loop 4) (Schizosaccharomyces pombe, UniProt Q09884 1258-1358, R1322A)
T1 sequence: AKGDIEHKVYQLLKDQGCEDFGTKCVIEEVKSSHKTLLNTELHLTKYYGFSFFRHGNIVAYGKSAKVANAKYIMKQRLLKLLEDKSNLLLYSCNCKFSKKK

[2] = biological target: T2, Dcr1 dsRBD K1265A (helix 1) (Schizosaccharomyces pombe, UniProt Q09884 1258-1358, K1265A)
T2 sequence: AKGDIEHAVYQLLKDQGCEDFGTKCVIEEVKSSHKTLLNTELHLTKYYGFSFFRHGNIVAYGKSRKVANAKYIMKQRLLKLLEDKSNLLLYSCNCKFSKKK

[3] = biological target: T3, Dcr1 C-terminal extended dsRBD (Schizosaccharomyces pombe, UniProt Q09884 1258-1358)
T3 sequence: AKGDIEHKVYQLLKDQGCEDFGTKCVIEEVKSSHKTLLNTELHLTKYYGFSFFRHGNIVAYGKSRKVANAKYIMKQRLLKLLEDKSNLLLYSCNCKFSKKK

[4] = biological target: T3, Dcr1 C-terminal extended dsRBD; remark: listed apart in the source

B1: dsRNA 24 bp (RNAfwd/RNArev) (dsRNA)
RNA 1: GGGAUCAAUAUGCUAAGCGAUCCC
RNA 2: GGGAUCGCUUAGCAUAUUGAUCCC
binding result [1]: no binding | binding result [2]: no binding | Kd [3]: 800 nM

B2: dsDNA 24 bp (DNAfwd/DNArev) (dsDNA)
DNA 1: GGGATCAATATGCTAAGCGATCCC
DNA 2: GGGATCGCTTAGCATATTGATCCC
binding result [1]: no binding | binding result [2]: no binding | Kd [4]: 1500 nM
